Reference: publication PMC3965211, “The Kinesin-12 Kif15 is a processive track-switching tetramer” (eLife, 2014)

Assays:
[1] = biological target: taxol-stabilised microtubules; experiment: co-sedimentation; microtubule sedimentation, 15 nM tetrameric hKif15 with 30 nM dimeric hTpx2, AMP-PNP, 35 mM sodium phosphate buffer pH 7.0, 1 mM MgCl2, 1 mM EGTA, 1 mM DTT, 20 min at room temperature; conditions: both partners purified
[2] = biological target: the molecule itself; experiment: glycerol gradient ultracentrifugation; 5-40% glycerol gradient, 35 mM sodium phosphate buffer, 300 mM NaCl, 1 mM DTT, 4°C, 15 hr; tetramer to dimers
[3] = biological target: the molecule itself; experiment: native gel or EMSA; 4-16% Native-PAGE gel stained with coomassie
[4] = biological target: the molecule itself; experiment: glycerol gradient ultracentrifugation; 5-40% glycerol gradient, 35 mM sodium phosphate buffer, 0-150 mM NaCl, 1 mM DTT, 4°C, 15 hr; apparent sedimentation coefficients

taxol-stabilised microtubules, sequence (chain, as listed by the source, chain 1 of 2): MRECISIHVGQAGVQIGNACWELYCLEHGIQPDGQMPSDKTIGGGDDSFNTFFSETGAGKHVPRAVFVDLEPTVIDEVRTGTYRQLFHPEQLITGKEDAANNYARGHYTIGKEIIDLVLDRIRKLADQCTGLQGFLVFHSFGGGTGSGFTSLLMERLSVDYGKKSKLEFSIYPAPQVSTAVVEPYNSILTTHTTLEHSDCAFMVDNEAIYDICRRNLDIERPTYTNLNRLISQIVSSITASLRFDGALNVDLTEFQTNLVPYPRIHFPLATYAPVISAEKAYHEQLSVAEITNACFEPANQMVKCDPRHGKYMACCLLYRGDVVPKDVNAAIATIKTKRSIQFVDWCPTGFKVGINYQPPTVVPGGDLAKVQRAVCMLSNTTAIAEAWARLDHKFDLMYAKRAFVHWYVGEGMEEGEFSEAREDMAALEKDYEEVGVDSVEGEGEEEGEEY
taxol-stabilised microtubules, sequence (chain, as listed by the source, chain 2 of 2): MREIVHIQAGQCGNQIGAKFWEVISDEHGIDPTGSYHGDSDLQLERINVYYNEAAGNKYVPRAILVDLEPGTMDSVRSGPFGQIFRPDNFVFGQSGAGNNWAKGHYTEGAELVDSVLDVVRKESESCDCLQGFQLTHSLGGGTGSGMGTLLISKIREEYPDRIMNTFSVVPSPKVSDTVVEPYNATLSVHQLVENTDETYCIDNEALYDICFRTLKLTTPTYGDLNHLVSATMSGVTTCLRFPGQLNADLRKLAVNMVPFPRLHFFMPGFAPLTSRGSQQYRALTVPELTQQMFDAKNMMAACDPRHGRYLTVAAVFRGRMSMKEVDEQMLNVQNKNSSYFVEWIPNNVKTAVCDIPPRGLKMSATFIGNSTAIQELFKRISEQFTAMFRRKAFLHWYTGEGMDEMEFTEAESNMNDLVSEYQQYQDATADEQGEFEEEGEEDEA

B1: Full-length human His6-Kif15 (natural protein, UniProt Q9NS87 1-1388, looked up)
chain: MAPGCKTELRSVTNGQSNQPSNEGDAIKVFVRIRPPAERSGSADGEQNLCLSVLSSTSLRLHSNPEPKTFTFDHVADVDTTQESVFATVAKSIVESCMSGYNGTIFAYGQTGSGKTFTMMGPSESDNFSHNLRGVIPRSFEYLFSLIDREKEKAGAGKSFLCKCSFIEIYNEQIYDLLDSASAGLYLREHIKKGVFVVGAVEQVVTSAAEAYQVLSGGWRNRRVASTSMNRESSRSHAVFTITIESMEKSNEIVNIRTSLLNLVDLAGSERQKDTHAEGMRLKEAGNINRSLSCLGQVITALVDVGNGKQRHVCYRDSKLTFLLRDSLGGNAKTAIIANVHPGSRCFGETLSTLNFAQRAKLIKNKAVVNEDTQGNVSQLQAEVKRLKEQLAELASGQTPPESFLTRDKKKTNYMEYFQEAMLFFKKSEQEKKSLIEKVTQLEDLTLKKEKFIQSNKMIVKFREDQIIRLEKLHKESRGGFLPEEQDRLLSELRNEIQTLREQIEHHPRVAKYAMENHSLREENRRLRLLEPVKRAQEMDAQTIAKLEKAFSEISGMEKSDKNQQGFSPKAQKEPCLFANTEKLKAQLLQIQTELNNSKQEYEEFKELTRKRQLELESELQSLQKANLNLENLLEATKACKRQEVSQLNKIHAETLKIITTPTKAYQLHSRPVPKLSPEMGSFGSLYTQNSSILDNDILNEPVPPEMNEQAFEAISEELRTVQEQMSALQAKLDEEEHKNLKLQQHVDKLEHHSTQMQELFSSERIDWTKQQEELLSQLNVLEKQLQETQTKNDFLKSEVHDLRVVLHSADKELSSVKLEYSSFKTNQEKEFNKLSERHMHVQLQLDNLRLENEKLLESKACLQDSYDNLQEIMKFEIDQLSRNLQNFKKENETLKSDLNNLMELLEAEKERNNKLSLQFEEDKENSSKEILKVLEAVRQEKQKETAKCEQQMAKVQKLEESLLATEKVISSLEKSRDSDKKVVADLMNQIQELRTSVCEKTETIDTLKQELKDINCKYNSALVDREESRVLIKKQEVDILDLKETLRLRILSEDIERDMLCEDLAHATEQLNMLTEASKKHSGLLQSAQEELTKKEALIQELQHKLNQKKEEVEQKKNEYNFKMRQLEHVMDSAAEDPQSPKTPPHFQTHLAKLLETQEQEIEDGRASKTSLEHLVTKLNEDREVKNAEILRMKEQLREMENLRLESQQLIEKNWLLQGQLDDIKRQKENSDQNHPDNQQLKNEQEESIKERLAKSKIVEEMLKMKADLEEVQSALYNKEMECLRMTDEVERTQTLESKAFQEKEQLRSKLEEMYEERERTSQEMEMLRKQVECLAEENGKLVGHQNLHQKIQYVVRLKKENVRLAEETEKLRAENVFLKEKKRSES
notes: Kinesin-12 Kif15 (hKlp2), human; complete ORF amplified from a cDNA library of hTERT-RPE1 cells; predicted molecular weight of His6-hKif15 164.8 kDa; A TEV cleavage site lies between His6 and the ORF (His6/TEV element of p11 in a modified pIEx/Bac1 vector); no cleavage is described; Tetramer at physiological ionic strength, dimer at 300 mM NaCl; also called hKif15; His6-hKif15; source: insect SF9 …
[1]
  KD with 30 nM dimeric hTpx2: 490 nM
[2]
  stoichiometry N: 2
[3]
  stoichiometry N: 4

B2: Full-length human His6-Kif15-eGFP (natural protein, UniProt Q9NS87 1-1388, looked up)
chain: MAPGCKTELRSVTNGQSNQPSNEGDAIKVFVRIRPPAERSGSADGEQNLCLSVLSSTSLRLHSNPEPKTFTFDHVADVDTTQESVFATVAKSIVESCMSGYNGTIFAYGQTGSGKTFTMMGPSESDNFSHNLRGVIPRSFEYLFSLIDREKEKAGAGKSFLCKCSFIEIYNEQIYDLLDSASAGLYLREHIKKGVFVVGAVEQVVTSAAEAYQVLSGGWRNRRVASTSMNRESSRSHAVFTITIESMEKSNEIVNIRTSLLNLVDLAGSERQKDTHAEGMRLKEAGNINRSLSCLGQVITALVDVGNGKQRHVCYRDSKLTFLLRDSLGGNAKTAIIANVHPGSRCFGETLSTLNFAQRAKLIKNKAVVNEDTQGNVSQLQAEVKRLKEQLAELASGQTPPESFLTRDKKKTNYMEYFQEAMLFFKKSEQEKKSLIEKVTQLEDLTLKKEKFIQSNKMIVKFREDQIIRLEKLHKESRGGFLPEEQDRLLSELRNEIQTLREQIEHHPRVAKYAMENHSLREENRRLRLLEPVKRAQEMDAQTIAKLEKAFSEISGMEKSDKNQQGFSPKAQKEPCLFANTEKLKAQLLQIQTELNNSKQEYEEFKELTRKRQLELESELQSLQKANLNLENLLEATKACKRQEVSQLNKIHAETLKIITTPTKAYQLHSRPVPKLSPEMGSFGSLYTQNSSILDNDILNEPVPPEMNEQAFEAISEELRTVQEQMSALQAKLDEEEHKNLKLQQHVDKLEHHSTQMQELFSSERIDWTKQQEELLSQLNVLEKQLQETQTKNDFLKSEVHDLRVVLHSADKELSSVKLEYSSFKTNQEKEFNKLSERHMHVQLQLDNLRLENEKLLESKACLQDSYDNLQEIMKFEIDQLSRNLQNFKKENETLKSDLNNLMELLEAEKERNNKLSLQFEEDKENSSKEILKVLEAVRQEKQKETAKCEQQMAKVQKLEESLLATEKVISSLEKSRDSDKKVVADLMNQIQELRTSVCEKTETIDTLKQELKDINCKYNSALVDREESRVLIKKQEVDILDLKETLRLRILSEDIERDMLCEDLAHATEQLNMLTEASKKHSGLLQSAQEELTKKEALIQELQHKLNQKKEEVEQKKNEYNFKMRQLEHVMDSAAEDPQSPKTPPHFQTHLAKLLETQEQEIEDGRASKTSLEHLVTKLNEDREVKNAEILRMKEQLREMENLRLESQQLIEKNWLLQGQLDDIKRQKENSDQNHPDNQQLKNEQEESIKERLAKSKIVEEMLKMKADLEEVQSALYNKEMECLRMTDEVERTQTLESKAFQEKEQLRSKLEEMYEERERTSQEMEMLRKQVECLAEENGKLVGHQNLHQKIQYVVRLKKENVRLAEETEKLRAENVFLKEKKRSES
notes: Kinesin-12 Kif15 (hKlp2), human; complete ORF from a cDNA library of hTERT-RPE1 cells, eGFP inserted via AscI/NotI behind the ORF; His6/TEV element before the ORF as in m1; also called hKif15-eGFP; His6-hKif15-eGFP; source: insect SF9 cells (baculovirus), purified (SP-sepharose cation exchange, then Talon/Co-NTA); not shown: His6, N-terminal, kept; eGFP, C-terminal, kept
[4]
  stoichiometry N: 4
